Reference: patent US20200277377A1 (WUXI BIOLOGICS SHANGHAI, published 2020)
Numbering of substitutions follows the chain as printed.

T1: hCTLA4_ECD.His point mutant E132 to alanine (human, UniProt P16410 36-161)
T1 construct: extracellular domain; alanine-scan mutein, HEK293F supernatant
T1 sequence (looked up): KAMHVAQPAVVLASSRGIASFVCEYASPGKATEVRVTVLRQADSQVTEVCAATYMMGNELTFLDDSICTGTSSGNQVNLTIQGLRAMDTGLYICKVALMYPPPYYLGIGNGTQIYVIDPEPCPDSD

T2: hCTLA4_ECD.His point mutant V131 to alanine (human, UniProt P16410 36-161)
T2 construct: extracellular domain; alanine-scan mutein, HEK293F supernatant
T2 sequence (looked up): T1 sequence (looked up) with V96A, A97E

T3: hCTLA4_ECD.His point mutant Q76 to alanine (human, UniProt P16410 36-161)
T3 construct: extracellular domain; alanine-scan mutein, HEK293F supernatant
T3 sequence (looked up): T1 sequence (looked up) with Q41A, A97E

T4: hCTLA4_ECD.His point mutant L126 to alanine (human, UniProt P16410 36-161)
T4 construct: extracellular domain; alanine-scan mutein, HEK293F supernatant
T4 sequence (looked up): T1 sequence (looked up) with L91A, A97E

T5: hCTLA4_ECD.His point mutant Y89 to alanine (human, UniProt P16410 36-161)
T5 construct: extracellular domain; alanine-scan mutein, HEK293F supernatant
T5 sequence (looked up): T1 sequence (looked up) with Y54A, A97E

T6: hCTLA4_ECD.His point mutant Q148 to alanine (human, UniProt P16410 36-161)
T6 construct: extracellular domain; alanine-scan mutein, HEK293F supernatant
T6 sequence (looked up): T1 sequence (looked up) with A97E, Q113A

T7: hCTLA4_ECD.His point mutant T72 to alanine (human, UniProt P16410 36-161)
T7 construct: extracellular domain; alanine-scan mutein, HEK293F supernatant
T7 sequence (looked up): T1 sequence (looked up) with T37A, A97E

T8: hCTLA4_ECD.His point mutant G144 to alanine (human, UniProt P16410 36-161)
T8 construct: extracellular domain; alanine-scan mutein, HEK293F supernatant
T8 sequence (looked up): T1 sequence (looked up) with A97E, G109A

T9: hCTLA4_ECD.His point mutant I143 to alanine (human, UniProt P16410 36-161)
T9 construct: extracellular domain; alanine-scan mutein, HEK293F supernatant
T9 sequence (looked up): T1 sequence (looked up) with A97E, I108A

T10: hCTLA4_ECD.His point mutant I128 to alanine (human, UniProt P16410 36-161)
T10 construct: extracellular domain; alanine-scan mutein, HEK293F supernatant
T10 sequence (looked up): T1 sequence (looked up) with I93A, A97E

T11: hCTLA4_ECD.His point mutant Y127 to alanine (human, UniProt P16410 36-161)
T11 construct: extracellular domain; alanine-scan mutein, HEK293F supernatant
T11 sequence (looked up): T1 sequence (looked up) with Y92A, A97E

T12: hCTLA4_ECD.His point mutant T147 to alanine (human, UniProt P16410 36-161)
T12 construct: extracellular domain; alanine-scan mutein, HEK293F supernatant
T12 sequence (looked up): T1 sequence (looked up) with A97E, T112A

T13: hCTLA4_ECD.His point mutant K65 to alanine (human, UniProt P16410 36-161)
T13 construct: extracellular domain; alanine-scan mutein, HEK293F supernatant
T13 sequence (looked up): T1 sequence (looked up) with K30A, A97E

B1: W3162-1.146.19-z12-uAb.IgG1K (antibody, V domains shown)
VH: QVQLQESGPGLVKPSETLSLTCSVTYHTITSGYDWTWIRKPPGKGMEWIGYISYSGNTNYNPSLKSRVTISRDTSKNQFFLKLSSVTAADTAVYYCASMMVPHYYVMDAWGQGTLVTVSS
VL: DIVMTQTPLSLSVTPGQPASISCRSSQSLLNSDGNTYLYWYLQKPGQSPQLLIYLVSKLGSGVPNRFSGSGSGTDFTLKISRVEAEDVGVYYCVQGTHDPWTFGGGTKVEIK
notes: Humanized; label says IgG1K
B2: W3162_1.154.8-z35-uAb.IgG1K (antibody, V domains shown)
VH: QVQLVQSGAEVKKPGSSVKVSCKASGYTFTNYFMNWVRQAPGQGLEWMGRVDPEQGRADYAEKFKKRVTITADKSTSTAYMELSSLRSEDTAVYYCARRAMDNYGFAYWGQGTLVTVSS
VL: EIVLTQSPDFQSVTPKEKVTITCSANSALSYMYWYQQKPDQSPKLWVHGTSNLASGVPSRFSGSGSGTDFTLTINSLEAEDAATYYCHHWSNTQWTFGGGTKVEIK
notes: Humanized; label says IgG1K

Tests used:
Experiment in all cases: capture ELISA, alanine scan, vs silent alanine substitutions
[1] = biological target: T1, hCTLA4_ECD.His point mutant E132 to …
How it was run: (§1)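 Secreted His-tagged CTLA4 point muteins in quantified supernatant were captured and probed with HRP anti-His antibody and TMB. Absorbance normalised to the mean of control mutants; epitope residues were assigned with a binding fold-change cutoff of <0.55.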

[2] = biological target: T2, hCTLA4_ECD.His point mutant V131 to …
How it was run: as §1

[3] = biological target: T3, hCTLA4_ECD.His point mutant Q76 to …
How it was run: as §1

[4] = biological target: T4, hCTLA4_ECD.His point mutant L126 to …
How it was run: as §1

[5] = biological target: T5, hCTLA4_ECD.His point mutant Y89 to …
How it was run: as §1

[6] = biological target: T6, hCTLA4_ECD.His point mutant Q148 to …
How it was run: as §1

[7] = biological target: T7, hCTLA4_ECD.His point mutant T72 to …
How it was run: as §1

[8] = biological target: T8, hCTLA4_ECD.His point mutant G144 to …
How it was run: as §1

[9] = biological target: T9, hCTLA4_ECD.His point mutant I143 to …
How it was run: as §1

[10] = biological target: T10, hCTLA4_ECD.His point mutant I128 to …
How it was run: as §1

[11] = biological target: T11, hCTLA4_ECD.His point mutant Y127 to …
How it was run: as §1

[12] = biological target: T12, hCTLA4_ECD.His point mutant T147 to …
How it was run: as §1

[13] = biological target: T13, hCTLA4_ECD.His point mutant K65 to …
How it was run: as §1

Binder | Fold change [1] | Fold change [2] | Fold change [3] | Fold change [4] | Fold change [5] | Fold change [6] | Fold change [7] | Fold change [8] | Fold change [9] | Fold change [10] | Fold change [11] | Fold change [12] | Fold change [13]
B1 | 0.457 fold | 0.504 fold | 0.2 fold | 0.398 fold | 0.512 fold | 0.5 fold | 0.541 fold | 0.478 fold | 0.264 fold | 0.256 fold | 0.529 fold | 0.486 fold | 
B2 |  |  |  |  |  |  |  |  |  |  |  |  | 0.351 fold
